Tests used:
GLIC–Glyα1–ICD chimeras = experiment: Proton concentration–response; assay type: cell-based, G. violaceus GLIC / rat Glyα1; details: proton activation (pH50), GLIC–Glyα1–ICD set, TEVC, −60 mV, ± standard error
[1] = tested on: GLIC–GABAAρ1–ICD chimeras; experiment: Proton concentration–response; assay type: cell-based, G. violaceus GLIC / human GABAAρ1; details: proton activation (pH50), GLIC–GABAAρ1–ICD set, TEVC, −60 mV, ± standard error
GLIC–nAChα7–ICD chimeras = experiment: Proton concentration–response; assay type: cell-based, G. violaceus GLIC / human nAChRα7; details: proton activation (pH50), GLIC–nAChα7–ICD set, TEVC, −60 mV, ± standard error
[2] = tested on: GLIC–nAChα7–ICD chimeras and wild-type GLIC; assay type: cell-based, G. violaceus GLIC / human nAChRα7; details: pH 7.5 to 5, after 48 h

B1: WT GLIC: wild-type Gloeobacter violaceus proton-gated pentameric ligand-gated ion channel (protein)
chain: QDMVSPPPPIADEPLTVNTGIYLIECYSLDDKAETFKVNAFLSLSWKDRRLAFDPVRSGVRVKTYEPEAIWIPEIRFVNVENARDADVVDISVSPDGTVQYLERFSARVLSPLDFRRYPFDSQTLHIYLIVRSVDTRNIVLAVDLEKVGKNDDVFLTGWDIESFTAVVKPANFALEDRLESKLDYQLRISRQYFSYIPNIILPMLFILFISWTAFWSTSYEANVTLVVSTLIAHIAFNILVETNLPKTPYMTYTGAIIFMIYLFYFVAVIEVTVQHYLKVESQPARAASITRASRIAFPVVFLLANIILAFLFFGF
modifications: left off: FLAG, C-terminal, state not stated
- −log EC50 (GLIC–Glyα1–ICD chimeras): 5.81 ± 0.05
- −log EC50 [1]: 5.81 ± 0.05
- −log EC50 (GLIC–nAChα7–ICD chimeras): 5.81 ± 0.05
- effect of RIC-3 co-expression on current amplitudes [2]: did not alter
